* marks the point of attachment. AMC = Cc1cc(=O)oc2cc(N*)ccc12; R110 = Rhodamine110 dye

One series relates to T1, (Ac-VEID)2R110.
T1 sequence: VEID
Briefly: SPR; as a2, but substrates (10 µM) mixed with compound 3 (1 µM) and injected together over the captured caspase-6 surfaces; apparent.

A further series addresses T2, caspase-3 (Homo sapiens, UniProt P42574).
T2 construct: as the catalytic domain consisting of large p20 and small p10 subunits without prodomain; made in house
T2 sequence (P42574 29-175 limits assumed): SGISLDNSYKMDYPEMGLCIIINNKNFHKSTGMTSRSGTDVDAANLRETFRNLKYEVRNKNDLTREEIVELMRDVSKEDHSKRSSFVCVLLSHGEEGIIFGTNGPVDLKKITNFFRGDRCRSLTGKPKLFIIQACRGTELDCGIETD
T2 sequence (P42574 176-277 limits assumed): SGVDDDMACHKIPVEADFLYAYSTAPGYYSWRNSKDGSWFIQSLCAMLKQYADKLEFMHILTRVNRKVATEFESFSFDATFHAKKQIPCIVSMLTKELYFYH
The experiment in a line: Caspase-3 enzymatic assay with divalent R110 substrates. In kind it is biochemical. As to conditions: caspase-3. How it is done: (§1) The in vitro enzymatic caspase assays utilize synthetic tetrapeptide substrates labeled with the fluorophores Rhodamine110 (R110) or 7-amino-4-methylcoumarin (AMC) at the P1 aspartic acid (Asp) residue. All assays were performed in 384-well plates in 12 µL reaction volume consisting of enzyme, substrate and indicated concentration of inhibitor or DMSO in assay buffer (50 mM HEPES [pH 7.0], 25 mM MgSO4, 0.5 mM EGTA, 5 mM Glutathione (GSH), 0.01% Triton X-100 containing 0.1% Bovine Gamma Globulin (BGG)). All inhibitors were serially diluted in 100% DMSO prior to dilution in assay buffer and transfer to assay plate. DMSO was diluted into assay buffer similarly for blank wells (no enzyme or compound) and final DMSO concentration was 1%. The concentration of caspase-6 used in enzymatic reactions typically varied between 1–10 nM depending on substrate used. Unless otherwise indicated, substrate concentration was within 3-fold of the determined Kmapparent (5 µM (Ac-VEID)2R110 [Kmapp = 8 µM]; 5 µM (Ac-DEVD)2R110 [Kmapp = 8 µM]; 25 µM (Ac-IETD)2R110 [Kmapp = 70 µM]; 25 µM (Ac-WEHD)2R110 [Kmapp = 70 µM]; 10µM Ac-VEID-AMC [Kmapp = 16µM]; 5 µM Ac-VEID-R110 [Kmapp = 8 µM]). The concentration of substrate utilized in selectivity assays for each caspase isoform was also held as close to Kmapparent as reasonably achievable (Table S1). Caspases-3 and -7 were expressed and purified at Genentech as the catalytic domain consisting of large p20 and small p10 subunits without prodomain. For all caspase enzymatic assays, the reaction plate was incubated at room temperature for 40 minutes and then read on Envision (Perkin Elmer) fluorescent plate reader at excitation/emission wavelengths of 485/535 nm (R110) or 350/450 nm (AMC).
The endpoint fluorescent emission (RFU) in each well was plotted as a function of inhibitor concentration and the 50% inhibition (IC50) values were determined using a nonlinear least squares fit of the data to a four parameter equation using Prism 5.0 software (GraphPad Software, San Diego, CA). […]

Another series addresses T3, caspase-6 (Homo sapiens, UniProt P55212).
T3 construct: Residues 24-179 and 194-293 from caspase-6 cDNA (Origene) were cloned into pET-24b and pET-23b vectors; 6x histidine tag (C); made in house; host or cells: E. coli BL21 (DE3) pLysS
T3 sequence (P55212 24-179): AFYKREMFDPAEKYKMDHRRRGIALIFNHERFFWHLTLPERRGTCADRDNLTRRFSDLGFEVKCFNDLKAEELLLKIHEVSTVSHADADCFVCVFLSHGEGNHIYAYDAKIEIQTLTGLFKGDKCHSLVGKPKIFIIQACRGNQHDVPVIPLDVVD
T3 sequence (P55212 194-293): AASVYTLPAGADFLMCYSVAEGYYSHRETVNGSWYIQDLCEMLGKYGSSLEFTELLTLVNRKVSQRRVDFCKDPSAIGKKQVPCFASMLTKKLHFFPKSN
The experiment in a line: Caspase-6 enzymatic assay with fluorogenic tetrapeptide substrates. Type of series: biochemical. As to the method: as §1, with “(AMC). […]” for “(AMC).”
The endpoint fluorescent emission (RFU) in each well was plotted as a function of inhibitor concentration and the 50% inhibition (IC50) values were determined using a nonlinear least squares fit of the data to a four parameter equation using Prism 5.0 software (GraphPad Software, San Diego, CA). […] Ki values for Compound 3 were calculated using this equation: Ki = IC50/(Km/[S] +1). Concentration-response curves for each inhibitor were normalized to zero and 100% based on no enzyme or DMSO control, respectively. For steady-state kinetic analysis, initial reaction velocity (RFU/minute) was plotted against substrate concentration at each inhibitor concentration and the data was fit to a hyperbolic Michaelis-Menten model using Prism 5.0 software. Km (µM) and Vmax (RFU/minute) were calculated by using this equation: v = Vmax • [S]/Km+[S] where v = initial reaction velocity at indicated substrate concentration (S). Vmax values were normalized to zero and 100% based on no enzyme or DMSO control, respectively.
Expression and purification of caspase-6 for enzymatic assays: Human caspase-6 was expressed as the mature enzyme using a split construct. Residues 24-179 and 194-293 from caspase-6 cDNA (Origene) were cloned into pET-24b and pET-23b vectors (Novagen) respectively; the small subunit contained a C-terminal 6x histidine tag. Vectors were cotransfected into the E.coli strain BL21 (DE3) pLysS (Stratagene). Cells were grown from a single colony in 6L of 2xYT supplemented with ampicillin and kanamycin at 37 °C to an OD of ~ 0.5 and were subsequently cooled to 16 °C before overnight induction with 0.2 mM IPTG. Cells were harvested by centrifugation, resuspended in 100 mM NaCl, 100 mM Tris, pH 8.0, and lysed.

For the compound “mature C163A-caspase-6 with C-terminal avi-tag”, the “apparent KD with compound 3 (dissociation of both compound and substrate)” value in the series with (Ac-VEID)2R110 is on record as “an apparent KD of ∼200 nM”.

“apo-caspase-6 with C-terminal avi-tag, biotinylated”: in the series with (Ac-VEID)2R110, the “apparent KD with compound 3 (dissociation of both compound and substrate)” value is reported as “an apparent KD of ∼200 nM”.

Take “(VEID)2R110: Rhodamine110 dye conjugated to two valine-glutamate-isoleucine-aspartate tetrapeptides; fluorogenic substrate (Ac-VEID-R110; also: two VEID chains on one R110 dye) [reference compound]”: the Kmapp of substrate with caspase-3 and with caspase-6 (caspase-6) was 8 µM each time. In the series with caspase-6 (caspase-6, kcat = Vmax/[E]), this compound returned a Kcat of substrate of 0.11 s⁻¹.

As for “Ac-VEID-AMC: monovalent VEID substrate in which R110 is replaced by amino-methyl coumarin (Ac-VEID-{AMC}; SMILES CC[C@H](C)[C@H](NC(=O)[C@H](CCC(=O)O)NC(=O)[C@@H](NC(C)=O)C(C)C)C(=O)N[C@@H](CC(=O)O)C(=O)Nc1ccc2c(C)cc(=O)oc2c1) [reference compound]”, the Kmapp of substrate in the series with caspase-6 (caspase-6) is 16 µM.

`COc1ccc(-c2cc(C(=O)NC(Cc3ccccc3)C(=O)O)c(C)o2)cc1OC` (centres unmarked) [Compound 2]: the “binding efficiency index (BEI; pIC50/molecular weight)” value at caspase-6 (caspase-6, (VEID)2R110) is given as 11.5. Further, at caspase-6 (caspase-6 cleavage of (VEID)2R110 substrate, read-out: IC50), the IC50 (as a rule, the concentration that gives 50% inhibition) was determined as 20 µM.

Values taken from publication PMC3515450, “Mechanistic and Structural Understanding of Uncompetitive Inhibitors of Caspase-6” (PLoS ONE, 2012).
